# US11904004B2, “Anti-CD277 antibodies” (INSTITUT NATIONAL DE LA SANTE ET DE LA RECHERCHE MEDICALE …, priority 2010, dated 2024)
# B1: mAb 20.1: murine anti-CD277 antibody obtainable from the hybridoma CNCM I-4402; agonist (antibody, V domains shown)
# VH: QVQLQQSGAELVKPGASVKLSCKASGYTFTRYYLYWVKQRPGQGLEWIGEINPNNGGTKFNEKFKSKATLTVDKSSRTTYIQLSSLTSEDSAVYYCSREDDYDGTPDAMDYWGQGTAVTVSS
# VL: DIQMNQSPSSLSASLGDTITITCHASQNINLWLSWYQQRPGNIPKLLIYRASNLHTGVPSRFSGSGSATGFTLTISSLQPEDIATYYCQQGHSYPYTFGGGTKLDIK
# Columns and labels:
# Assay type in all cases: cell-based, human
# [1] = tested on: Daudi, K562 or Raji cells lines; experiment: Anti-tumor cytolysis by Vγ9Vδ2 T cells against tumor cell lines (CD107a/b degranulation)
# Method: We used for γδ T cells labelling in purity test after expansion, anti-CD3 PE-Cy7 and anti-Vδ2 FITC mAb (BD Pharmingen). For CD277 characterisation in different subsets PBMC were incubated with the following antibodies and molecules: anti-CD3 PE-Cy5 (BD Pharmingen), anti-CD4 PB (BD Pharmingen), anti-CD8 PB (BD Pharmingen), anti-Vδ2 FITC (BD Pharmingen), anti-CD27 APC ALEXA FLUOR® 750 (CALTAG Laboratory), anti-CCR7 PECy7 (BD Pharmingen), anti-CD28 PE (Beckman Coulter), anti-CD45RA ECD (Beckman Coulter), LIVE/DEAD® Fixable Dead Cell Stain Kit (L34957, Invitrogen) and anti-CD277 labelled with ALEXA FLUOR® 647 (Protein labelling Kit ALEXA FLUOR® 647, Molecular Probes, Invitrogen). For analysis of CD107a and CD107b expression, γδ T cells and target cells were co-incubated at 37° C. with anti-CD107a FITC and anti-CD107b FITC in presence of monensin (10 μM, GOLIGISTOP®, BD Bioscience). […] All samples were measured on FACSCANTO® or FACSARIA® flow cytometers (BD Biosciences) using FACSDIVA® software. […]
# Target cells were labelled with 20 μCi of 51Cr (PerkinElmer) for 1 h at 37° C. […] The radioactivity released by target cells was measured, 4 h later, on beta plate counter. The percentage of specific 51Cr lysis was calculated using the following equation: percent specific lysis=100×[(test release)−(spontaneous release)]/[(maximal release)−(spontaneous release)].
# CD4+ T cells = experiment: Functional assays on CD4+ T cells using plate-immobilized mAbs
# Method: Purified CD4+ T cells (200×10^3 cells/well) from thawed human PBMCs were cultured in RPMI 1640 10% FBS in flat bottom 96-well plates (MICROTEST™ 96, BD) with previously plate-immobilized mouse anti-human CD3 (clone OKT3)/CD28 (clone CD28.2) or anti-CD3/anti-CD277 (clone 20.1) or anti-CD3/isotypic control (IgG1). Purified anti-CD3 was used at 0, 3 μg/ml. Anti-CD28, anti-CD277 and isotypic control were used at 10 μg/ml. Cells were placed into an atmosphere of 5% CO2 at 37° C. in a humidified incubator. […] […] Data were analyzed using FLOWJO® Software (TreeStar, Ashland, OR).
# primary AML blasts = experiment: Chromium release assay, lysis of primary AML blasts by Vγ9Vδ2 T cells
# Method: Effector γδ T cells were established and maintained as previously described^28. PBMC from HV were stimulated with ZOL (1 μm) and rhlL-2 (200 IU/ml) at Day 0. From Day 5, rhIL-2 was renewed every two days and cells were kept at 1.5×10^6/m1 for 15 days. NK cells were isolated using EASYSEP® Human NK cell enrichment kit (StemCell Technologies). The purity of γδ T cells and NK cells was determined by flow cytometry and respectively greater than 80% and 98%. The Burkitt lymphoma cell line, DAUDI, the human AML cell line, U937, and the erythroleukemic cell line, K562, were obtained from the American Type Culture Collection and cultured (0.5×10^6/ml) in RPMI 1640 medium with 10% FCS. BTN3A Knock-down HEK293FT cells (sh #284; clone #30) were provided by E.Scotet (Inserm U892, Nantes), cultured and transfected with BTN3A1, BTN3A2, BTN3A3 mutated cDNA-containing plasmids, as described^23.
# 0.5×10^6 target cells were incubated with 50 pCi of ^51Cr (Perkin-Elmer) for AML blasts and 10 pCi for DAUDI and K562 cells for 90 minutes and mixed with effector cells in a Effector:Target (E:T) ratio of […]. After 4 hours of incubation at 37° C., 50p1 supernatant of each sample was transferred in LUMA® plates and radioactivity was determined by a gamma counter. The percentage of specific lysis was calculated using the formula [(experimental−spontaneous release/total−spontaneous release)×100] and expressed as the mean of triplicate.
# monocytes = experiment: Apoptosis detection (Annexin V), survival of monocytes; conditions: both monocytes and iDC; data not shown
# Method: Blood samples were obtained from 5 healthy volunteers enrolled among the staff members, after informed consent. Monocytes were separated from peripheral blood mononuclear cells, and isolated using the MACS CD14 isolation kit (Miltenyi Biotech, Auburn, Calif. USA). Monocytes were cultured for 5 days with 200 ng/ml of recombinant human GM-CSF and 10 ng/ml recombinant human IL-4 (Schering-Plough Research Institute). These cells were termed immature dendritic cells (iDC). To achieve the stimulation, monocytes and iDC were cultured with 10 ng/ml of LPS, ligand for TLR4, 30 μg/ml of 8848 (Sigma-Aldrich, Milano, Italy), ligand for TLR7/8 and with […] of poly (I:C) (Sigma-Aldrich), ligand for TLR3, and were harvested after 48 h. The cells were cultured in RPMI 1640 supplemented with 10% heat-inactivated FCS, 5 mM L-glutamine and 50 IU/ml penicillin-streptomycin (from here on referred to as complete medium).
# Monocytes and iDC were cultured on plastic coated with anti-BT3 mAb (clone 20.1) or with isotype-matched irrelevant mAb. As control, the cells were stimulated with 20 ng/ml recombinant human GM-CSF (Schering-Plough Research Institute). After three days, cells were harvested, stained with Annexin V-FITC (Bender MedSystems, Wien, Austria) and analysed by flow cytometry.
# [2] = co-stimulation with anti-CD3, vs anti-CD3/IgG1 control, after 24 hours of culture
molecule,measurement,setting,value
B1,function/activation of Vγ9Vδ2 T cells against tumor targets (CD107a/b degranulation assay),[1],potentiated or revealed
same,IFN-γ production by CD4+ T cells (ELISA),CD4+ T cells; [2],strongly enhanced
same,IL-2 production by CD4+ T cells (ELISA),CD4+ T cells; [2],significantly highest than the one with the IgG control
same,CD25 activated positive cells,"CD4+ T cells; co-stimulation with anti-CD3, after 3 days of culture",45%
same,Vγ9Vδ2 T cell lysis of ZOL-resistant or ZOL-poorly responsive AML blasts,primary AML blasts; E:T 30:1,significantly enhanced
same,enhancement of Vγ9Vδ2 T cells lysis of AML blasts compared with BrHpp,"primary AML blasts; E:T 30:1, ZOL 45 μM O/N, 20.1 mAb 10 μg/ml, BrHpp 2 μM",significantly more efficient
same,specific lysis of AML blasts,"primary AML blasts; Vγ9Vδ2 T cells pre-incubated with mAb (10 μg/ml, 90 minutes), washed",~4.36±2.11%
same,"AML blasts lysis by Vγ9Vδ2 T cells, addition to ZOL",primary AML blasts; anti-BTN3A 20.1 mAb added to ZOL,poor but significant
same,specific lysis of AML blasts,"primary AML blasts; blasts pre-incubated with mAb (10 μg/ml, 90 minutes), washed",22.92±7.64%
same,sensitization of blasts from UPN09 to Vγ9Vδ2 T cells lysis in vitro,primary AML blasts; data not shown,highly sensitized
same,specific lysis of AML blasts,"primary AML blasts; simultaneous incubation of effector cells, target cells and mAb",35.95±1.16%
same,lowest anti-BT3 mAb dilution able to promote a good survival capability,monocytes,10 µg/mL
